Columns and labels:
Experiment in all cases: cryo-EM structure
[1] = target: PltBd1 recombinantly expressed in E. coli as part of a holotoxin (S. diarizonae)
[2] = target: PltBd2 in the endogenously expressed DiaT holotoxin purified from S. diarizonae (S. diarizonae)
[3] = target: PltBd2 recombinantly expressed in E. coli as part of the PltBd2 homopentameric holotoxin (S. diarizonae)

“PltBd1 recombinantly expressed in E. coli as part of a holotoxin (natural protein)” showed a stoichiometry N [1] of 5.
In the case of “PltBd1 in the endogenously expressed DiaT holotoxin purified from S. diarizonae (natural protein)”, the stoichiometry N (PltBd1 per PltBd2 (3:2)) [2] is reported as 1.5.
“PltBd2 recombinantly expressed in E. coli as part of the PltBd2 homopentameric holotoxin (natural protein)” showed a stoichiometry N [3] of 5.

Reference: paper PMC12629460
